Test results taken from article doi:10.1101/856021 (2019).

Target: Jil-1 peptide 984-1004 F989A (Drosophila, UniProt Q9V3I5 984-994, F989A)
Experiment: ITC

B1: dP75 IBD-containing C-terminus region (residues 209-445) (domain or fragment)
chain: AAVTPIQKRSRPVNNIRNEMLMVYMPTAKCLGIVINYKKPESFESAAAEEAWMENARKEALELKLKLESGQINPESMPDRIVVEPTRSEIPKQEALRFIEELIEHEDALFMERDFIQLSQQLRECLGLRRANVGKCLEILEQFKEVEFTKLMLLRNPECVDIMRRLRRYVGNLELWKMDLSDEVEFKERAQTIRKVSSGIYDGFKSLFNPEPESEDNFWIDFCEKVKIYKTYTKNIN
- Kd: 122 µM
